This passage reports percent of parent results from publication PMC8424649 (2021).

First the molecules themselves.
B1: GFP-FAN1, full-length FAN1 (FAN1^FL) [human] / MLH1 (endogenous, human) [human (endogenous in iPSCs, lymphoblastoid cells, U2OS, HEK293T, MSNs, HeLa)] (parent complex)
chain 1: MMSEGKPPDKKRPRRSLSISKNKKKASNSIISCFNNAPPAKLACPVCSKMVPRYDLNRHLDEMCANNDFVQVDPGQVGLINSNVSMVDLTSVTLEDVTPKKSPPPKTNLTPGQSDSAKREVKQKISPYFKSNDVVCKNQDELRNRSVKVICLGSLASKLSRKYVKAKKSIDKDEEFAGSSPQSSKSTVVKSLIDNSSEIEDEDQILENSSQKENVFKCDSLKEECIPEHMVRGSKIMEAESQKATRECEKSALTPGFSDNAIMLFSPDFTLRNTLKSTSEDSLVKQECIKEVVEKREACHCEEVKMTVASEAKIQLSDSEAKSHSSADDASAWSNIQEAPLQDDSCLNNDIPHSIPLEQGSSCNGPGQTTGHPYYLRSFLVVLKTVLENEDDMLLFDEQEKGIVTKFYQLSATGQKLYVRLFQRKLSWIKMTKLEYEEIALDLTPVIEELTNAGFLQTESELQELSEVLELLSAPELKSLAKTFHLVNPNGQKQQLVDAFLKLAKQRSVCTWGKNKPGIGAVILKRAKALAGQSVRICKGPRAVFSRILLLFSLTDSMEDEDAACGGQGQLSTVLLVNLGRMEFPSYTINRKTHIFQDRDDLIRYAAATHMLSDISSAMANGNWEEAKELAQCAKRDWNRLKNHPSLRCHEDLPLFLRCFTVGWIYTRILSRFVEILQRLHMYEEAVRELESLLSQRIYCPDSRGRWWDRLALNLHQHLKRLEPTIKCITEGLADPEVRTGHRLSLYQRAVRLRESPSCKKFKHLFQQLPEMAVQDVKHVTITGRLCPQRGMCKSVFVMEAGEAADPTTVLCSVEELALAHYRRSGFDQGIHGEGSTFSTLYGLLLWDIIFMDGIPDVFRNACQAFPLDLCTDSFFTSRRPALEARLQLIHDAPEESLRAWVAATWHEQEGRVASLVSWDRFTSLQQAQDLVSCLGGPVLSGVCRHLAADFRHCRGGLPDLVVWNSQSRHFKLVEVKGPNDRLSHKQMIWLAELQKLGAEVEVCHVVAVGAKSQSLS
chain 2: MSFVAGVIRRLDETVVNRIAAGEVIQRPANAIKEMIENCLDAKSTSIQVIVKEGGLKLIQIQDNGTGIRKEDLDIVCERFTTSKLQSFEDLASISTYGFRGEALASISHVAHVTITTKTADGKCAYRASYSDGKLKAPPKPCAGNQGTQITVEDLFYNIATRRKALKNPSEEYGKILEVVGRYSVHNAGISFSVKKQGETVADVRTLPNASTVDNIRSIFGNAVSRELIEIGCEDKTLAFKMNGYISNANYSVKKCIFLLFINHRLVESTSLRKAIETVYAAYLPKNTHPFLYLSLEISPQNVDVNVHPTKHEVHFLHEESILERVQQHIESKLLGSNSSRMYFTQTLLPGLAGPSGEMVKSTTSLTSSSTSGSSDKVYAHQMVRTDSREQKLDAFLQPLSKPLSSQPQAIVTEDKTDISSGRARQQDEEMLELPAPAEVAAKNQSLEGDTTKGTSEMSEKRGPTSSNPRKRHREDSDVEMVEDDSRKEMTAACTPRRRIINLTSVLSLQEEINEQGHEVLREMLHNHSFVGCVNPQWALAQHQTKLYLLNTTKLSEELFYQILIYDFANFGVLRLSEPAPLFDLAMLALDSPESGWTEEDGPKEGLAEYIVEFLKKKAEMLADYFSLEIDEEGNLIGLPLLIDNYVPPLEGLPIFILRLATEVNWDEEKECFESLSKECAMFYSIRKQYISEESTLSGQQSEVPGSIPNSWKWTVEHIVYKALRSHILPPKHFTEDGNILQLANLPDLYKVFERC

Variants of B1 are the subject of this experiment. Nature of the experiment: GFP-Trap pull-down, quantified immunoblot; U2OS cell extracts; n = 5 biological replicates; parent: 100; read off a plot. For orientation: A western blot detects proteins with antibodies after separation by electrophoresis.
Take chain 1 Q123A: the percent of parent is approximately 110.

chain 1 Y128A: the percent of parent is approximately 1. The figure for chain 1 S126A is approximately 10; for chain 1 F129A it is approximately 5.
